Assay results from article doi:10.1101/2020.04.29.069500.

Molecular target: first Tudor domain of PHF20L1 (PHF20L1 Tudor1) (UniProt A8MW92)
Test: NMR titration

Sequence of UniProt A8MW92 (A8MW92 5-70): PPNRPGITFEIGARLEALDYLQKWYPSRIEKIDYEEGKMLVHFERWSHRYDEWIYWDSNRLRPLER

**Q.** Which Kd does the source give for “K142 mono-methylated (K142me1) DNMT1 peptide” here?
**A.** 670 µM
